B1: Transcriptional coactivator yorkie (Drosophila melanogaster (Fruit fly)), Q45VV3 (parent)
chain: MLTTMSASSNTNSLIEKEIDDEDMLSPIKSNNLVVRVNQDTDDNLQALFDSVLNPGDAKRPLQLPLRMRKLPNSFFTPPAPSHSRANSADSTYDAGSQSSINIGNKASIVQQPDGQSPIAAIPQLQIQPSPQHSRLAIHHSRARSSPASLQQNYNVRARSDAAAANNPNANPSSQQQPAGPTFPENSAQEFPSGAPASSAIDLDAMNTCMSQDIPMSMQTVHKKQRSYDVISPIQLNRQLGALPPGWEQAKTNDGQIYYLNHTTKSTQWEDPRIQYRQQQQILMAERIKQNDVLQTTKQTTTSTIANNLGPLPDGWEQAVTESGDLYFINHIDRTTSWNDPRMQSGLSVLDCPDNLVSSLQIEDNLCSNLFNDAQAIVNPPSSHKPDDLEWYKIN
partner: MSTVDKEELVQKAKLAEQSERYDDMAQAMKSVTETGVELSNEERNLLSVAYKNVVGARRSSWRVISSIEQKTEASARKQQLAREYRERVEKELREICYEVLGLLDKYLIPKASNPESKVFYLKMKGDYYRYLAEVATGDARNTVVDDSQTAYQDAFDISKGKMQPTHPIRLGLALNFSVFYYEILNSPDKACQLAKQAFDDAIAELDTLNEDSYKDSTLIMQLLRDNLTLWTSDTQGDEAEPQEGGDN

Variants of: B1
Conditions: with 1433z_drome 14-3-3zeta

Variant | effect of a mutation on the interaction
S145A | decreasing interaction

Reference: IntAct's records for PubMed 17889654
